The source of these data is patent US20050251879A1 (published 2005).

Residue numbers refer to the chain shown, from its start.

In assay [1] the target is T1, Potato virus Y capsid protein (PVY CP) fused with the Gal4 binding domain (Potato virus Y (N strain), UniProt P04386 1-147; P18247 2797-3063).
T1 construct: also called pGBT9-PVY CP; PVY envelope protein
Put plainly: yeast two-hybrid, lacZ activity.

The target in assay [2] is T2, Gal4 binding domain alone (pGBT1) (UniProt P04386 1-147).
T2 construct: Control
The experiment in a line: yeast two-hybrid, lacZ activity.

Assay [3] concerns the target T3, SNF1 fused with the Gal4 binding domain (pBD-SNF1) (UniProt P04386 1-147; P06782 1-633).
T3 construct: Control plasmid, bought
Put plainly: yeast two-hybrid, lacZ activity.

Assay [4] has as its target Tobacco vein mottling virus capsid protein (TVMV CP), Gal4 binding domain fusion (Tobacco vein mottling virus, UniProt P04386 1-147; P09814 2759-3023). Put plainly: yeast two-hybrid, HIS3 and lacZ reporters.
Assay [5] has as its target T1, Potato virus Y capsid protein (PVY CP) …. Put plainly: yeast two-hybrid, lacZ reporter.

B1: SNF4 fused with the Gal4 activation domain (pAD-SNF4) (other)
chain: MKPTQDSQEKVSIEQQLAVESIRKFLNSKTSYDVLPVSYRLIVLDTSLLVKKSLNVLLQNSIVSAPLWDSKTSRFAGLLTTTDFINVIQYYFSNPDKFELVDKLQLDGLKDIERALGVDQLDTASIHPSRPLFEACLKMLESRSGRIPLIDQDEETHREIVVSVLTQYRILKFVALNCRETHFLKIPIGDLNIITQDNMKSCQMTTPVIDVIQMLTQGRVSSVPIIDENGYLINVYEAYDVLGLIKGGIYNDLSLSVGEALMRRSDDFEGVYTCTKNDKLSTIMDNIRKARVHRFFVVDDVGRLVGVLTLSDILKYILLGSN
In the case of B1, in assay [1], the binding result was “no binding”.

B2: NtCPIP1 (DnaJ-like protein from Nicotiana tabacum) fused with the Gal4 activation domain (other)
chain: MGVDYYKILKVSRNASEEDLKKSYKRLAMKWHPDKNSEKEAEAKFKQISEAYDVLSDPQKRQIYDIYGDEALKSGQFDPSSPMNGNGRGFKFDSRDAEDIFAEFFGGSDGYSRSPTGGTVRIRKPAPVENKLPCSLEELYKGSKRKMKISRIVLDVTGKPTTIEEVLAIHIKPGWKKGTKITFPEKGNHEPGAAPGDLIFVIDEKPHDVFKRDGNDLVINQKISLVDALSGKIINLATLDGRELTIPITDVVKPGHEQIIADEGMPISKEPGKKGNLRIKFEVKFPSRLSSDQKLDIRRVLGRTVD
notes: also called pAD-CPIP1
For B2, the binding result in assay [2], in assay [3] and in assay [4] was “no binding” throughout.

B3: NtCPIP2a Δ94N, Gal4 activation domain fusion (other)
chain: RFNTRDAEAIFAEFFGGSGSNSGAGVGRKAAPVENKLPCSLEELYKGSRRKMKISRILLDDSGKPTTVEEVLAIHIKPGWKKGTKITFPEKGNYEPGATPGDLIFVIDEKPHAVFKRDGNDLEINQKISLLDALTGKTISLITLDGRELTIPITDIVKPGHEHIIPNEGMPISKERGKKGNLKIKFDIKFPSRLSADQKSDIRRVLCRSAD
In the case of B3, the binding result in assay [5] was “no binding”.

B4: NtCPIP1 Δ115N, Gal4 activation domain fusion (other)
chain: TGGTVRIRKPAPVENKLPCSLEELYKGSKRKMKISRIVLDVTGKPTTIEEVLAIHIKPGWKKGTKITFPEKGNHEPGAAPGDLIFVIDEKPHDVFKRDGNDLVINQKISLVDALSGKIINLATLDGRELTIPITDVVKPGHEQIIADEGMPISKEPGKKGNLRIKFEVKFPSRLSSDQKLDIRRVLGRTVD
Take B4: the binding result in assay [5] is reported as “no binding”.

B5: NtCPIP2a Δ119N, Gal4 activation domain fusion (other)
chain: VGRKAAPVENKLPCSLEELYKGSRRKMKISRILLDDSGKPTTVEEVLAIHIKPGWKKGTKITFPEKGNYEPGATPGDLIFVIDEKPHAVFKRDGNDLEINQKISLLDALTGKTISLITLDGRELTIPITDIVKPGHEHIIPNEGMPISKERGKKGNLKIKFDIKFPSRLSADQKSDIRRVLCRSAD
In the case of B5, the binding result in assay [5] is given as “no binding”.

B6: NtCPIP2a (DnaJ-like protein from Nicotiana tabacum), Gal4 activation domain fusion (other)
chain: MGLDYYNVLKVSRNASEEDLKRSYKRLAMKWHPDKNSQNKKEAEAKFKQISEAYDVLSDPQKRQIYDVYGDDALKSGQFASASPTSAGSNARGFRFNTRDAEAIFAEFFGGSGSNSGAGVGRKAAPVENKLPCSLEELYKGSRRKMKISRILLDDSGKPTTVEEVLAIHIKPGWKKGTKITFPEKGNYEPGATPGDLIFVIDEKPHAVFKRDGNDLEINQKISLLDALTGKTISLITLDGRELTIPITDIVKPGHEHIIPNEGMPISKERGKKGNLKIKFDIKFPSRLSADQKSDIRRVLCRSAD
As to B6, the binding result in assay [4] was “no binding”.

B7: NtCPIP2b (DnaJ-like protein from Nicotiana tabacum), Gal4 activation domain fusion (other)
chain: B6 chain with N7D, A91G, G113D, G117A, E217V, I250V, S303N, A304S
Turning to B7, in assay [4], the binding result is “no binding”.
